Test results from patent publication US20250346660A1 (PARAGON THERAPEUTICS, published 2025).
Where a chain is given by its changes, count along the chain named.

B1: Reference Antibody 1 (antibody, human IgG1, kappa, L234A L235A, V domains shown)
VH: QVQLVQSGAEVKKPGSSVKVSCKASGYTFTDQTIHWMRQAPGQGLEWIGYIYPRDDSPKYNENFKGKVTITADKSTSTAYMELSSLRSEDTAVYYCAIPDRSGYAWFIYWGQGTLVTVSS
VL: DIQMTQSPSSLSASVGDRVTITCKASRDVAIAVAWYQQKPGKVPKLLIYWASTRHTGVPSRFSGSGSRTDFTLTISSLQPEDVADYFCHQYSSYPFTFGSGTKLEIKR
notes: also called anti-human IL-23p19 antibody; parental antibody
B2: IL-23 antibody clone 107 (antibody, human IgG1, kappa, L234A L235A, V domains shown)
VH: B1 VH with D31A, S57T, E62P, I108D
VL: B1 VL
B3: IL-23 antibody clone 202 (antibody, human IgG1, kappa, L234A L235A, V domains shown)
VH: EVQLLESGGGLVQPGGSLRLSCAASGYTFTDQTIHWVRQAPGKGLEWIGYIYPRDDSPKYNENFKGRATLSADKSKNTAYLQMNSLRAEDTAVYYCAIPDRSGYAWFIYWGQGTTVTVSS
VL: EIVMTQSPATLSVSPGERATLSCKASRDVAIAVAWYQQKPGQAPRLLLYWASTRHTGIPARFSGSGSRTEFTLTISSLQSEDFAVYYCHQYSSYPFTFGGGTKVEIKR
notes: Full antibody format
B4: IL-23 antibody clone 203 (antibody, human IgG1, kappa, L234A L235A, V domains shown)
VH: B3 VH
VL: B3 VL with Y49F
notes: Full antibody format

Columns and labels:
Recombinant Human IL-23 [1] = target: T1, Recombinant Human IL-23 (human, UniProt Q9NPF7 20-189; P29460 23-328); assay: cell-based or functional assay
T1 sequence (looked up) 1: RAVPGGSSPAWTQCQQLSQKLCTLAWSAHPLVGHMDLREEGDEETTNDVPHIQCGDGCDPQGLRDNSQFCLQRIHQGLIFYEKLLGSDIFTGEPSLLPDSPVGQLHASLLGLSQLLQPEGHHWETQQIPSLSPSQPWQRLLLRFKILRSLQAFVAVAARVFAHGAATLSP
T1 sequence (looked up) 2: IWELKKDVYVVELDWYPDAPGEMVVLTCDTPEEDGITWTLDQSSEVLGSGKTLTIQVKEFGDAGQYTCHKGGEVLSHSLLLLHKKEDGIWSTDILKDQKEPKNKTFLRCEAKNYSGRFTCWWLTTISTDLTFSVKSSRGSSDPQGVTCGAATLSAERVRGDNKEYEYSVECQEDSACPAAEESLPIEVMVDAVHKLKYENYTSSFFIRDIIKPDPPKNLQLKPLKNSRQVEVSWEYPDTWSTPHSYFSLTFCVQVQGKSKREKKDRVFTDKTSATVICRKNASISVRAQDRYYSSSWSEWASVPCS

Recombinant Human IL-23 [2] = target: T1, Recombinant Human IL-23; assay: cell-based or functional assay; remark: listed apart in the source
Recombinant Human IL-23 [3] = target: T1, Recombinant Human IL-23; assay: cell-based or functional assay; remark: listed apart in the source
Recombinant Human IL-23 [4] = target: T1, Recombinant Human IL-23; assay: SPR (Biacore 8K), mAb captured on anti-human IgG, human IL-23 as analyte, 25 C, 1:1 model
Description: (§1) Reference Antibody 1 was used as a comparator. […] Anti-IL23 mAb constructs (diluted to 2 μg/mL) were captured onto flow cell 2 (active) for 60 sec at a flow rate of 10 μL/min. Recombinant Human IL-23 was prepared at concentrations of 0, 1.23, 3.7, 11.11, 33.33, 100 nM and injected over flow cell 1 (reference) and flow cell 2 (active) for 180 sec at a flow rate of 50 μL/min. Samples were injected in a multi-cycle manner over freshly captured mAb, by regenerating the capture surfaces with injection of 10 mM glycine, pH 1.5 for 30 sec at a flow rate of 30 μL/min. A 1:1 kinetic binding model was utilized to determine the apparent association (kₐ) and dissociation […] rate constants. Their ratio provides the apparent equilibrium dissociation constant or affinity constant ([…]).

Recombinant Human IL-23 [5] = target: T1, Recombinant Human IL-23; assay: SPR (Biacore 8K), mAb captured on anti-human IgG, human IL-23 as analyte, 25 C, 1:1 model; below the limit of detection
Description: as §1

Recombinant Human IL-23 [6] = target: T1, Recombinant Human IL-23; assay: SPR (Biacore 8K), mAb captured on goat anti-human IgG CM5 chip, human IL-23 as analyte, 25 C, 1:1 model
Description: as §1

| Binder | Relative IC50, inhibition of IL-23-induced activation of STAT3 (luciferase reporter, HEK 293F IL-23R+/IL-12Rb1+ cells) (Recombinant Human IL-23 [1]) | Relative IC50, inhibition of IL-23-induced phosphorylation of STAT3 in DB cells (pSTAT3 sandwich ELISA) (Recombinant Human IL-23 [2]) | Relative IC50, inhibition of IL-23-induced release of IL-17 from human PBMCs (Recombinant Human IL-23 [3]) | kon (Recombinant Human IL-23 [4]) | koff (Recombinant Human IL-23 [5]) | Kd (Recombinant Human IL-23 [6]) |
| --- | --- | --- | --- | --- | --- | --- |
| B1 | 1 relative to Reference Antibody 1 | 1 relative to Reference Antibody 1 | 1 relative to Reference Antibody 1 | 167000 M⁻¹ s⁻¹ | < 1e-06 s⁻¹ | – |
| B2 | 0.57 relative to Reference Antibody 1 | 0.51 relative to Reference Antibody 1 | 0.67 relative to Reference Antibody 1 | 187000 M⁻¹ s⁻¹ | < 1e-06 s⁻¹ | – |
| B3 | 0.76 relative to Reference Antibody 1 | – | 0.79 relative to Reference Antibody 1 | 210000 M⁻¹ s⁻¹ | < 1e-06 s⁻¹ | – |
| B4 | 0.66 relative to Reference Antibody 1 | – | 0.78 relative to Reference Antibody 1 | 271000 M⁻¹ s⁻¹ | < 1e-06 s⁻¹ | < 6 pM |
